# Reference: the supplement of paper PMC9112550, “Optimization of the antimicrobial peptide Bac7 by deep mutational scanning” (BMC Biology, 2022)
# Test system: Escherichia coli TOP10
# Experiment: shrunken log2 fold change of peptide-encoding DNA abundance (4.5 h post-induction vs induction); higher = less antimicrobial activity (less host growth inhibition)
# Conditions: time post-induction: 4.5 h; library: site-saturation at positions 5, 18, 19, 20
# 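Note: peptides expressed intracellularly from a pBAD plasmid library in pooled LB shake-flask culture, induced with 0.3% L-arabinose, DNA abundance read by NGS, three biological replicates, DESeq2 with apeglm shrinkage.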
row,Sequence,shrunken log2 fold change
1,RRIRWRPPRLPRPRPRPKIHPRP,-0.23
2,RRIRWRPPRLPRPRPRPKIRPRP,0.00361
3,RRIRWRPPRLPRPRPRPKKVPRP,0.0465
4,RRIRWRPPRLPRPRPRPKLFPRP,0.589
5,RRIRWRPPRLPRPRPRPKLQPRP,0.182
6,RRIRWRPPRLPRPRPRPKMDPRP,0.135
7,RRIRWRPPRLPRPRPRPKMMPRP,-0.106
8,RRIRWRPPRLPRPRPRPKPCPRP,0.229
9,RRIRWRPPRLPRPRPRPKPYPRP,3.05
10,RRIRWRPPRLPRPRPRPKQIPRP,0.143
11,RRIRWRPPRLPRPRPRPKQQPRP,-0.133
12,RRIRWRPPRLPRPRPRPKRDPRP,0.696
13,RRIRWRPPRLPRPRPRPKRWPRP,0.441
14,RRIRWRPPRLPRPRPRPKSCPRP,0.178
15,RRIRWRPPRLPRPRPRPKSEPRP,0.502
16,RRIRWRPPRLPRPRPRPKWFPRP,0.257
17,RRIRWRPPRLPRPRPRPKWPPRP,0.477
18,RRIRWRPPRLPRPRPRPKYGPRP,0.085
19,RRIRWRPPRLPRPRPRPLCAPRP,0.776
20,RRIRWRPPRLPRPRPRPLCRPRP,0.17
21,RRIRWRPPRLPRPRPRPLCTPRP,0.106
22,RRIRWRPPRLPRPRPRPLDFPRP,0.0518

row,Sequence,shrunken log2 fold change
1,RRIRWRPPRLPRPRPRPLDWPRP,0.355
2,RRIRWRPPRLPRPRPRPLEEPRP,1.06
3,RRIRWRPPRLPRPRPRPLESPRP,0.176
4,RRIRWRPPRLPRPRPRPLFNPRP,-0.711
5,RRIRWRPPRLPRPRPRPLFQPRP,-0.0127
6,RRIRWRPPRLPRPRPRPLGDPRP,0.598
7,RRIRWRPPRLPRPRPRPLHYPRP,-0.369
8,RRIRWRPPRLPRPRPRPLIAPRP,0.273
9,RRIRWRPPRLPRPRPRPLIIPRP,-0.269
10,RRIRWRPPRLPRPRPRPLKRPRP,0.612
11,RRIRWRPPRLPRPRPRPLKWPRP,0.488
12,RRIRWRPPRLPRPRPRPLMCPRP,0.117
13,RRIRWRPPRLPRPRPRPLMNPRP,-0.0906
14,RRIRWRPPRLPRPRPRPLMPPRP,0.486
15,RRIRWRPPRLPRPRPRPLNCPRP,-0.0452
16,RRIRWRPPRLPRPRPRPLNMPRP,-0.832
17,RRIRWRPPRLPRPRPRPLQSPRP,0.153
18,RRIRWRPPRLPRPRPRPLRCPRP,0.242
19,RRIRWRPPRLPRPRPRPLSFPRP,-0.0327
20,RRIRWRPPRLPRPRPRPLSHPRP,0.000856
21,RRIRWRPPRLPRPRPRPLSIPRP,-0.0528
22,RRIRWRPPRLPRPRPRPLYAPRP,0.188

row,Sequence,shrunken log2 fold change
1,RRIRWRPPRLPRPRPRPLYMPRP,-0.684
2,RRIRWRPPRLPRPRPRPMADPRP,0.0452
3,RRIRWRPPRLPRPRPRPMAQPRP,0.218
4,RRIRWRPPRLPRPRPRPMCCPRP,0.181
5,RRIRWRPPRLPRPRPRPMCNPRP,-0.181
6,RRIRWRPPRLPRPRPRPMEVPRP,-0.00973
7,RRIRWRPPRLPRPRPRPMGHPRP,-0.116
8,RRIRWRPPRLPRPRPRPMHTPRP,0.643
9,RRIRWRPPRLPRPRPRPMHWPRP,0.194
10,RRIRWRPPRLPRPRPRPMIRPRP,-0.348
11,RRIRWRPPRLPRPRPRPMKSPRP,0.252
12,RRIRWRPPRLPRPRPRPMLHPRP,-0.17
13,RRIRWRPPRLPRPRPRPMLLPRP,0.259
14,RRIRWRPPRLPRPRPRPMLQPRP,0.544
15,RRIRWRPPRLPRPRPRPMNFPRP,-0.0285
16,RRIRWRPPRLPRPRPRPMNGPRP,-0.131
17,RRIRWRPPRLPRPRPRPMNLPRP,-0.063
18,RRIRWRPPRLPRPRPRPMPSPRP,-0.116
19,RRIRWRPPRLPRPRPRPMQAPRP,1.83
20,RRIRWRPPRLPRPRPRPMQWPRP,0.379
21,RRIRWRPPRLPRPRPRPMTGPRP,0.019
22,RRIRWRPPRLPRPRPRPMVHPRP,0.0275

row,Sequence,shrunken log2 fold change
1,RRIRWRPPRLPRPRPRPMVMPRP,-0.0614
2,RRIRWRPPRLPRPRPRPMYQPRP,-0.0254
3,RRIRWRPPRLPRPRPRPNCCPRP,-0.16
4,RRIRWRPPRLPRPRPRPNDVPRP,-0.0909
5,RRIRWRPPRLPRPRPRPNECPRP,-0.437
6,RRIRWRPPRLPRPRPRPNFDPRP,-0.0228
7,RRIRWRPPRLPRPRPRPNFIPRP,-0.174
8,RRIRWRPPRLPRPRPRPNGKPRP,0.123
9,RRIRWRPPRLPRPRPRPNHNPRP,-0.681
10,RRIRWRPPRLPRPRPRPNKAPRP,-0.00104
11,RRIRWRPPRLPRPRPRPNLGPRP,0.0106
12,RRIRWRPPRLPRPRPRPNMLPRP,0.0876
13,RRIRWRPPRLPRPRPRPNNQPRP,-0.494
14,RRIRWRPPRLPRPRPRPNPLPRP,3.58e-05
15,RRIRWRPPRLPRPRPRPNQFPRP,0.0104
16,RRIRWRPPRLPRPRPRPNQVPRP,0.0796
17,RRIRWRPPRLPRPRPRPNSLPRP,-0.123
18,RRIRWRPPRLPRPRPRPNSQPRP,-0.0188
19,RRIRWRPPRLPRPRPRPNTDPRP,-0.262
20,RRIRWRPPRLPRPRPRPNTMPRP,-0.301
21,RRIRWRPPRLPRPRPRPNVHPRP,0.0272
22,RRIRWRPPRLPRPRPRPNVVPRP,-0.144

row,Sequence,shrunken log2 fold change
1,RRIRWRPPRLPRPRPRPNWGPRP,0.105
2,RRIRWRPPRLPRPRPRPNWTPRP,0.0351
3,RRIRWRPPRLPRPRPRPNYVPRP,-0.128
4,RRIRWRPPRLPRPRPRPPCWPRP,0.347
5,RRIRWRPPRLPRPRPRPPDGPRP,0.784
6,RRIRWRPPRLPRPRPRPPDLPRP,0.888
7,RRIRWRPPRLPRPRPRPPDVPRP,0.235
8,RRIRWRPPRLPRPRPRPPELPRP,0.38
9,RRIRWRPPRLPRPRPRPPFCPRP,0.24
10,RRIRWRPPRLPRPRPRPPFNPRP,0.31
11,RRIRWRPPRLPRPRPRPPFSPRP,0.222
12,RRIRWRPPRLPRPRPRPPFVPRP,0.171
13,RRIRWRPPRLPRPRPRPPKIPRP,0.22
14,RRIRWRPPRLPRPRPRPPKNPRP,0.757
15,RRIRWRPPRLPRPRPRPPLAPRP,1.63
16,RRIRWRPPRLPRPRPRPPLHPRP,0.417
17,RRIRWRPPRLPRPRPRPPMEPRP,-0.131
18,RRIRWRPPRLPRPRPRPPNCPRP,-0.11
19,RRIRWRPPRLPRPRPRPPNMPRP,0.0854
20,RRIRWRPPRLPRPRPRPPRSPRP,0.733
21,RRIRWRPPRLPRPRPRPPTEPRP,0.597
